Four molecules from paper PMC2914225, “Fusion of GFP to the M.EcoKI DNA methyltransferase produces a new probe of Type I DNA restriction and modification enzymes” (Biochemical and Biophysical Research Communications, 2010) can be followed below.

The stoichiometry N is the number of molecules, sites or subunits per partner or assembly. As a reminder, the Kd is a measure of binding affinity in units of concentration.

Series [1] concerns the target GFP-MTase (M.EcoKI DNA methyltransferase, M2S1 form, with enhanced green fluorescent protein fused to the C-terminus of HsdS) (E. coli) (UniProt P08957). Kind of series: SEC; labelled mutant ocr proteins with GFP-MTase, size exclusion chromatography as previously described [14]; 20 or 25 °C, 20 mM Tris-HCl pH 8.0, 6 mM MgCl2, 7 mM 2-mercaptoethanol. In general terms: Size exclusion chromatography separates by hydrodynamic size, large species first.

The target of series [2] is T1, GFP-MTase (M.EcoKI M2S1 with EGFP fused to C-terminus of HsdS) (Escherichia coli? (EcoKI; expressed in …, UniProt P08957;P05719 1-529;1-464).
T1 sequence 1: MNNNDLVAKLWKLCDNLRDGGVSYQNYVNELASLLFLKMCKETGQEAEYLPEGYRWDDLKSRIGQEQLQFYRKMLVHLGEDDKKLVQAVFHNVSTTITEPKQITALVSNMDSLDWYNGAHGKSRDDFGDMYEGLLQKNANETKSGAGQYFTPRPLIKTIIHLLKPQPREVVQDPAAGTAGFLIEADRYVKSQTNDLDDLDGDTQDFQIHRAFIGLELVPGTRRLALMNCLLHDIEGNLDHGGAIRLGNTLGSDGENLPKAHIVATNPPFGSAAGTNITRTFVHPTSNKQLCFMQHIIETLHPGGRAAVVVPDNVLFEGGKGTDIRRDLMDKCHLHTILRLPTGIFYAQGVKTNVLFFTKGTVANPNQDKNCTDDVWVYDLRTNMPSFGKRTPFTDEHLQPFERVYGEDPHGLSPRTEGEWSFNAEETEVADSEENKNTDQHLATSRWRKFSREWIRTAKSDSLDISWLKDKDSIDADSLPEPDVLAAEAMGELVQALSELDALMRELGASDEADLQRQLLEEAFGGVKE
T1 sequence 2: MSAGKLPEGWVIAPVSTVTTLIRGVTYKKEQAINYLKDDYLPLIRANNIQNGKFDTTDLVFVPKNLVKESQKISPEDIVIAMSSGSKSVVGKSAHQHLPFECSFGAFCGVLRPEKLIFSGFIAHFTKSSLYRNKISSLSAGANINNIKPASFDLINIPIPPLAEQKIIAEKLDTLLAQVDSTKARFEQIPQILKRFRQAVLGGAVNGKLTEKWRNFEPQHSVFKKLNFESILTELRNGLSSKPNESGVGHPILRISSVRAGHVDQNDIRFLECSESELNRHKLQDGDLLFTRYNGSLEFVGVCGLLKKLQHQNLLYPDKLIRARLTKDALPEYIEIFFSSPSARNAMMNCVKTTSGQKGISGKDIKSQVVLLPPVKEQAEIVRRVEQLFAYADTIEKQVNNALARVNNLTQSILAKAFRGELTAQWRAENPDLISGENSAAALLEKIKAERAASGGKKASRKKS
Kind of series: FRET continuous variation titration; no NaCl; 6 mM Mg2+; 1:1 complex; 20 mM Tris-HCl pH 8.0, 6 mM MgCl2, 7 mM 2-mercaptoethanol, NaCl 0-100 mM (0 for the Kd), 20 or 25 °C. The note with it: protein: recombinant; tags: EGFP-His6 at C-terminus of HsdS; chain copies: 2;1; label: 5'-HEX on top strand; blunt.

The target in series [3] is T2, GFP-MTase (M.EcoKI DNA methyltransferase, M2S1 form, with enhanced green fluorescent protein fused to the … (E. coli, UniProt P08957 1-529; P05719 1-464).
T2 construct: HsdM modification (MTase) subunit of the Type I R/M enzyme EcoKI, E. coli; its C-terminus is fused to the N-terminus of EGFP; Construct pJFMSEGFP derives from pJFMS [18] and pEGFP-N1; EGFP serves as the FRET donor; also called M.EcoKI fused to GFP; fusion protein; not shown: EGFP, C-terminal, kept; copies: 2 + 1
T2 sequence (looked up) 1: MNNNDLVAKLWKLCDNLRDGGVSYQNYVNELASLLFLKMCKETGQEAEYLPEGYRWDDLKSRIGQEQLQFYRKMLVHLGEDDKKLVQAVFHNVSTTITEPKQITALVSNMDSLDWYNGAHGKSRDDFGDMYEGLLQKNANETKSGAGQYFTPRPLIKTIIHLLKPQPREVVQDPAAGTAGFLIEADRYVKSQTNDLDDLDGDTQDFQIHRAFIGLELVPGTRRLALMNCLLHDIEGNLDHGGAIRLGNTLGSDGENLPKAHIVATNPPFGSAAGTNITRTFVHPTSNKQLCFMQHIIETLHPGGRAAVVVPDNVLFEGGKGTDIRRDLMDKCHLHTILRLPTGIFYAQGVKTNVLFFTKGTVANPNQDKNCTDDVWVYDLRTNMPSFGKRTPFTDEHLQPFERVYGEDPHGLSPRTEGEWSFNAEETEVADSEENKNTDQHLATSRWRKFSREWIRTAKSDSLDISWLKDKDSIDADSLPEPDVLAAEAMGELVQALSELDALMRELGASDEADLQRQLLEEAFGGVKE
T2 sequence (looked up) 2: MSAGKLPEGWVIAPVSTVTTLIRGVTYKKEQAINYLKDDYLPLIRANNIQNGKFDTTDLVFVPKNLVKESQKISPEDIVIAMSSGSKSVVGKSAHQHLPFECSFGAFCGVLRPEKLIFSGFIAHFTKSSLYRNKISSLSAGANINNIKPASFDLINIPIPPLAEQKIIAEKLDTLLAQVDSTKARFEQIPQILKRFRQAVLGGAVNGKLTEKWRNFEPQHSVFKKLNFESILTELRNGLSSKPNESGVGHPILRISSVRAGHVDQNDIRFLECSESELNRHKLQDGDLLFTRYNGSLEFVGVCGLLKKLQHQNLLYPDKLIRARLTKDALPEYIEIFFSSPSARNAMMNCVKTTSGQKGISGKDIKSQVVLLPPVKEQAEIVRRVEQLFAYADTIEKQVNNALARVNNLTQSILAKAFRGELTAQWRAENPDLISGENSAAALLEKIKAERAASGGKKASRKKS
Kind of series: SEC; labelled mutant ocr proteins with GFP-MTase, size exclusion chromatography as previously described [14]; 20 or 25 °C, 20 mM Tris-HCl pH 8.0, 6 mM MgCl2, 7 mM 2-mercaptoethanol. The note with it: both partners purified.

As for “Dylight549-labelled ocr E20C mutant protein (from UniProt P03775 1-117) (natural protein)”, the stoichiometry N in series [1] was 1. The same measure, in the same setting: under “Dylight549-labelled ocr S68C mutant protein (from UniProt P03775 1-117) (natural protein)” stands 1.

B1: 21TH21B (dsDNA)
DNA 1: GCCTAACCACGTGGTGCGTAC
DNA 2: GTACGCACCACGTGGTTAGGC
Take B1: the dissociation constant Kd in series [2] turned out to be 19 ± 7 nM.

B2: Dylight549-labelled ocr E117C mutant protein (natural protein, phage T7, UniProt P03775 1-117, looked up)
chain: MAMSNMTYNNVFDHAYEMLKENIRYDDIRDTDDLHDAIHMAADNAVPHYYADIFSVMASEGIDLEFEDSGLMPDTKDVIRILQARIYEQLTIDLWEDAEDLLNEYLEEVEEYEEDEC
modifications: Dylight549 maleimide on the introduced cysteine at 117 (labelling level 86.3%)
notes: gene 0.3 protein, ocr, from phage T7; one cysteine and so one acceptor label in each subunit; also called E117C ocr; E117E (as printed once); source: site directed mutagenesis and protein purification as described previously [17]
B2: in series [3], the “stoichiometry N” value came to 1.
